Reference: US12448434B2, “Antibodies specifically recognizing Pseudomonas PcrV and uses thereof” (priority 2019, dated 2025)

Tests used:
PcrV = assay: BIACORE binding to PcrV; parameters: species or system Pseudomonas aeruginosa; conditions: data not shown
Procedure: The association constant (ka), dissociation constant (kd) and the equilibrium dissociation constant (kD) for binding of optimized anti-PcrV mAb clones 7B1, 7C1, 8C1, 6D10 and reference antibody V2L2-MD to PcrV were tested by BIACORE (GE company).

BV particles = assay: Cross-reactivity to BV particles by ELISA; type: binding; conditions: FIG. 3
Procedure: Cross-reactivity to BV particles: Using ELISA, optimized antibodies 7C1, 7B1, 8C1, 6D10, and reference antibodies V2L2-MD and Mab166 were tested for cross-reactivity to BV particles according to the method described previously (See Hötzel I, et al, 2012, mAbs 4:6, 753-760).

PcrV-negative A549 cells = assay: Cross-reactivity to PcrV-negative A549 cells by FACS; type: cell-based, human; conditions: FIGS. 4A-4E, compared with no antibody and V2L2-MD
Procedure: Cross-reactivity to A549 cells: Using FACS, parental antibody 13-42, optimized antibodies 7C1, 7B1, 8C1, 6D10 as well as V2L2-MD were tested for cross-reactivity to PcrV-negative A549 cells.

[1] = tested on: PcrV mutants (with mutations at position 225); assay: Binding to PcrV mutants with mutations at position 225; parameters: species or system Pseudomonas aeruginosa; conditions: data not shown
Procedure: To further illustrate the optimized antibodies could broadly neutralize P. aeruginosa strains, the abilities of these antibodies to bind various forms of PcrV mutants were tested. Briefly, 100 PcrV sequences were randomly selected from Genebank database. In contrast to the wild type sequence as shown in SEQ ID No: 71, 13% of the selected sequences contained R, G, or K at position 225 (as compared of S in the wild type sequence SEQ No: 71), which was the main mutation around the epitope of 7B1.
These findings further illustrate that the optimized anti-PcrV antibodies could neutralize a broad spectrum of P. aeruginosa strains, which might express various forms of PcrV mutants.

[2] = tested on: P. aeruginosa (PA103 strain); assay: Prophylactic mouse acute pneumonia model, organ burden; type: in vivo, BALB/c mice; conditions: 10 mg/kg i.p. 24 hr before infection, 0.5*LD90
Procedure: In a prophylactic model, 7-8 week old BALB/c mice (Vital River Laboratory) were administered with antibodies or PBS intraperitoneally (i.p.) 24 hr before infection, at 10 mg/kg mouse weight. To induce acute pneumonia, the BALB/c mice were intranasally inoculated with P. aeruginosa (PA103 strain) suspended in a 40 μl inoculum at half the lethal dose (0.5*LD90; 3×10^5 CFU). 24 hours post-infection, mice were euthanized, where the lungs, spleens and kidneys were extracted, homogenized and diluted before plating on agar to measure the viable bacteria units (in CFU), which represented the P. aeruginosa burden in the respective organ sample.

[3] = tested on: P. aeruginosa (PA103 strain); assay: Therapeutic mouse acute pneumonia model, survival; type: in vivo, BALB/c mice; conditions: i.v. 1 h post-infection, 1 mg/kg or 10 mg/kg; 1*LD90; 6 days
Procedure: In a therapeutic model, to induce acute pneumonia, 7-8 week old BALB/c mice (Vital River Laboratory) were intranasally inoculated with P. aeruginosa (PA103 strain) suspended in a 40 μl inoculum at a lethal dose (1*LD90=8×10^5 CFU). Antibodies or PBS were administered intravenously (i.v.) at 1 h post-infection, at a dose of 1 mg/kg or 10 mg/kg mouse weight. Mouse survival was recorded for up to 6 days post-infection.

[4] = rat, in vivo, iv
Procedure: Pharmacokinetic profile in rat: 40 healthy adult rats (about 0.2 kg by weight) were equally into two groups, where each group registered similar average weight. One group was injected intravenously with 30 mg/kg of V2L2-MD, 7C1, 7B1, 8C1 or 6D10 and the other group was injected intravenously with 3 mg/kg of V2L2-MD, 7C1, 7B1, 8C1 or 6D10. Blood was collected at […], and subsequently at 0 hour, 0.5 hour, 2 hour, 8 hour, 1 day, 3 days, 7 days, 11 days, 17 days, 23 days, 31 days, 41 days and 52 days after injection. After centrifugation, the plasma was used for analyzing antibody concentration using ELISA. For the ELISA experiment, synthetic PcrV was used to coat the wells of a 96-well plate. On the following day, after washing with PBST, blocking with 200 μL PBS-milk for an hour, and another wash with PBST, the plasma was added and incubated for an hour at 37° C. The plate was washed with 0.1% TBST for 6 times before 100 μL of Goat-anti-human Fc antibody-AP (1:3000 in PBS) was added to each well and incubated for an hour. After washing with 0.1% TBST for 6 times, 50 μL of pNPP was added to each well and color was developed for 10-20 minutes at 37° C. The signals were read by a microplate reader at 410 nm.

[5] = tested on: Strain 57/66(O6) P. aeruginosa; assay: RBC lysis inhibition assay, strain 57/66(O6); type: cell-based, Pseudomonas aeruginosa; conditions: Table 7
Procedure: Monoclonal scFv antibodies were selected and assessed for biological activity by RBC lysis assay. Briefly, red blood cells (RBCs) were prepared from fresh whole human or rabbit blood by centrifugation, supplemented with EDTA and rinsed with multiple phosphate-buffered saline (PBS) washes. Washed RBCs (2.5% [vol/vol] final) in Dulbecco's modified Eagle's medium (DMEM) plus 10% fetal bovine serum (FBS) (Gibco) and purified anti-PcrV antibodies diluted in PBS were combined into wells of a round-bottom 96-well plate. Strain 57/66(O6) P. aeruginosa was grown to mid-log phase in 2× YT medium (Oxford), harvested by centrifugation, and resuspended in DMEM-fetal bovine serum (FBS) at an optical density at 600 nm (OD600) of 0.15. Ten microliters of bacterial suspension was added to the RBC-antibody mixture, mixed by agitation, and incubated for 3 hours at 37° C. and 5% CO2. The plates were briefly centrifuged (1000 rpm, 1 min) to pellet the intact RBCs, the supernatants transferred to a flat-bottom 96-well plate, and the OD405 was measured to detect any lysis, from which the relative amount of lysis inhibition was calculated and plotted. IC50 values for the antibodies were also determined.
The ability of optimized anti-PcrV mAb clones 7B1, 7C1, 8C1, 6D10, 6A10, 5B3, 3B12, 4A10, 2B1, 7B2, 3H10, 3G3, 9B12, 3A9, 2D3, 7B1-1F5, to inhibit red blood cell lysis was compared to the parental 13-42 mAb and the reference antibody V2L2-MD. RBC lysis inhibition assay was performed as described in Example 1.
The optimized anti-PcrV mAb clones 7C1, 8C1, and 7B1 were further analyzed for their abilities to inhibit red blood cell lysis by various strains of P. aeruginosa, namely strains O1-52/66, O16-177/81, and O6-57/66, as compared to the parental 13-42 mAb and the reference antibody V2L2-MD. RBC lysis inhibition assay was performed as described in Example 1.

B1: 6D10: optimized anti-PcrV mAb clone; VH SEQ ID NO: 61, VL SEQ ID NO: 65 (antibody, V domains shown)
VH: EVQLLESGGGLVQPGGSLRLSCTASGFTFSDYPMSWVRQAPGKGLDWVSGISESGGSTNYADSVKGRFSTSRDNSKSTLYLDMNSLRAEDTAIYYCAKGRFSTDSSHFYRAVYGMDVWGQGTAVTVSS
VL: DIQLTQSPSSLSASVGDRVTITCRASQGISSYLAWYQQKPGKAPKLLIYAASTLQSGVPSRFSGSGSGTDFTLTISSLQPEDFATYYCQQLSSYPLSFGGGTKVEIK
- association and dissociation kinetics in PcrV binding (ka and kd values) (PcrV): comparable association and dissociation kinetics
- non-specific binding to BV particles (BV particles): low levels of non-specific binding
- binding to PcrV-negative A549 cells (PcrV-negative A549 cells): similarly low levels of A549 binding
- binding to PcrV mutants with R, G or K at position 225 [1]: strongly bind these mutants
- reduction of organ burden in the lung, spleen and kidney relative to HIV-10E8 ([2]; FIG. 8B): higher efficacy in reducing organ burden
- reduction of organ burden in the lung, spleen and kidney relative to V2L2-MD ([2]; FIG. 8B): comparable efficacy in reducing organ burden
- survival improvement relative to V2L2-MD [3]: survival improvement comparable to that of V2L2-MD
- half-lives relative to reference antibody V2L2-MD [4]: comparable to or longer than that of reference antibody V2L2-MD

B2: 13-42: lead parental full-length human IgG1 anti-PcrV antibody; VH SEQ ID NO: 48, VL SEQ ID NO: 65 (antibody, V domains shown)
VH: EVQLLESGGGLVQPGGSLRLSCTASGFTFSDYPMSWVRQAPGKGLDWVSGISESGGSTNDADSVKGRFSTSRDNSKSTLYLDMNSLRAEDTAIYYCAKGRFCTNSSCFFRAVYGMDVWGQGTAVTVSS
VL: DIQLTQSPSSLSASVGDRVTITCRASQGISSYLAWYQQKPGKAPKLLIYAASTLQSGVPSRFSGSGSGTDFTLTISSLQPEDFATYYCQQLSSYPLSFGGGTKVEIK
- binding to PcrV-negative A549 cells (PcrV-negative A549 cells): similarly low levels of A549 binding
- reduction of organ burden in the lung relative to V2L2-MD ([2]; 24 hours post-infection, FIG. 8A): better efficacy in reducing organ burden in the lung

B3: 9B12: optimized anti-PcrV mAb clone; VH SEQ ID NO: 64, VL SEQ ID NO: 67 (antibody, V domains shown)
VH: EVQLLESGGGLVQPGGSLRLSCTASGFTFSDNPMSWVRQAPGKGLDWVSVISESGGSTNDADSVKGRFSTSRDNSKSTLYLDMNSLRAEDTAIYYCAKGRFSTNSDHFYRAVYGMDVWGQGTAVTVSS
VL: DIQLTQSPSSLSASVGDRVTITCRASQGISSYLAWYQQKPGKAPKLLIYAASTLQSGVPSRFSGSGSGTDFTLTISSLQPEDFATYYCQQLSSYPLTFGGGTKVEIK
- RBC lysis assay IC50 [5]: 0.07 µg/mL

B4: 2D3: optimized anti-PcrV mAb clone; VH SEQ ID NO: 53, VL SEQ ID NO: 65 (antibody, V domains shown)
VH: EVQLLESGGGLVQPGGSLRLSCTASGFTFSDNHMSWVRQAPGKGLDWVSGISESGGSTYYADSVKGRFSTSRDNSKSTLYLDMNSLRAEDTAIYYCAKGRFSYDTRHFFRAVYGMDVWGQGTAVTVSS
VL: DIQLTQSPSSLSASVGDRVTITCRASQGISSYLAWYQQKPGKAPKLLIYAASTLQSGVPSRFSGSGSGTDFTLTISSLQPEDFATYYCQQLSSYPLSFGGGTKVEIK
- RBC lysis assay IC50 [5]: 0.05 µg/mL

B5: 7B1-1F5: optimized anti-PcrV mAb clone; VH SEQ ID NO: 62, VL SEQ ID NO: 70 (antibody, V domains shown)
VH: EVQLLESGGGLVQPGGSLRLSCTASGFTFSDNYMSWVRQAPGKGLDWVSVISESGGSTNYADSVKGRFSTSRDNSKSTLYLDMNSLRAEDTAIYYCAKGRFSTLSSHFFRAVYGMDVWGQGTAVTVSS
VL: DIQLTQSPSSFSASTGDRVTITCRASQGISSYLAWYQQKPGKAPKVLIYAASTLQSGVPSRFSGSGSGTEFTLTISSLQPEDFATYYCQQLKSYPLTFGGGTKLEIK
- RBC lysis assay IC50 [5]: 0.19 µg/mL
